Measurements as given in patent US20190284299A1.

Assays:
[1] = target: CD3 on Jurkat cells (Homo sapiens (Human)) (UniProt P07766); assay: flow cytometry on Jurkat cells, 5 nM, anti-human IgG-FITC
[2] = target: CD3 on Jurkat cells (Homo sapiens (Human)) (UniProt P07766); assay: flow cytometry on Jurkat cells, as in Example 8
[3] = target: CD20 on Raji cells (UniProt P11836); assay: flow cytometry on Raji cells, as in Example 8
[4] = target: CD3 on Jurkat cells (Homo sapiens (Human)) (UniProt P07766); assay: flow cytometry on Jurkat cells, as in Example 8; remark: listed apart in the source
[5] = target: HER2 on SK-BR-3 cells (UniProt P04626); assay: flow cytometry on SK-BR-3 cells, 0.5 nM, anti-human IgG-FITC
[6] = target: CD3 on Jurkat cells (Homo sapiens (Human)) (UniProt P07766); assay: flow cytometry on Jurkat cells, as in Example 8; remark: listed apart in the source

CD3 on Jurkat cells (Homo sapiens (Human)), sequence (P07766 23-207 limits assumed, form in doubt, chain 1 of 3): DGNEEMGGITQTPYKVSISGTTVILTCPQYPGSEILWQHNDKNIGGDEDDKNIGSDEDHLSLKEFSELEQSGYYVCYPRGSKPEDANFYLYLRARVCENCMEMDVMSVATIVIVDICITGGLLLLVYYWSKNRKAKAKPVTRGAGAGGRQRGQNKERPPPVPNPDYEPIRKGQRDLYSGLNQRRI
CD3 on Jurkat cells (Homo sapiens (Human)), sequence (delta, as listed by the source limits assumed, form in doubt, chain 2 of 3): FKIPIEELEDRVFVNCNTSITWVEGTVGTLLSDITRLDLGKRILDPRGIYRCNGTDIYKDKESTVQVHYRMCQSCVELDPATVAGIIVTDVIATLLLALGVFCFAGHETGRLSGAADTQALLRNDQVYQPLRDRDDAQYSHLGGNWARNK
CD3 on Jurkat cells (Homo sapiens (Human)), sequence (gamma, as listed by the source limits assumed, form in doubt, chain 3 of 3): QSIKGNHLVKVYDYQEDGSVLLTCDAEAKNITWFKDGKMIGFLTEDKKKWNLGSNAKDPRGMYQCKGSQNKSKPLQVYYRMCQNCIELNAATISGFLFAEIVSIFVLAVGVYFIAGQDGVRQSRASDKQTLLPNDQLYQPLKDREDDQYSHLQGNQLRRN
CD20 on Raji cells, sequence (P11836 whole entry): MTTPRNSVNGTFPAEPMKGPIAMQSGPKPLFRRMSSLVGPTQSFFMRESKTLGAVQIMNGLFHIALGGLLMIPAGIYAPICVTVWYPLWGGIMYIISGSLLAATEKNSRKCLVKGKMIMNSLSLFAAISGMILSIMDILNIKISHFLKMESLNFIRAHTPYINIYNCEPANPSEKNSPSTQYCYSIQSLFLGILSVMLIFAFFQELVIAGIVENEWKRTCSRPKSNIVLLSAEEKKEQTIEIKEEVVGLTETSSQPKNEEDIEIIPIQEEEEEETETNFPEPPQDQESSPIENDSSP

MFI [1]: 3.16 | MFI [2]: 2.75 | MFI [3]: 2.77 | MFI [4]: 2.7 | Mean Fluorescence Intensity (MFI) [5]: 2.88 | MFI [6]: 3.34
Substance: isotype control (human immunoglobulin, Jiangxi Boya Bio-pharmaceutical, Approval No.S19993012) (antibody)
